According to the RNAGym collection of RNA variant scans (doi:10.7554/elife.90254):

B1: LINE1-full (parent)
chain: UACGUAGGUGGUUUUCCCCUGAUAGUGCUAAGGGGGCCUGGAAGUUUGGACUGGGCAGAGCUCAACACAGCGUGGCAAAGUGGCUGUGGCUAGACUGCCUCUCUGGAUUCCUCGUCACUCAGCAGGGCAUCUCUGAGAGAAAUGCC

Variants of: B1
Assay: self-cleavage, relative activity (ratio to wild type); higher = more cleavage; in vitro, sequencing; the parent is a self-cleaving ribozyme

Variant	self-cleavage
G27U U39C	0.63
G58A U73C	0.04
G4A A136U	1.51
A31G U130G	1.84
G80U U109C	1.21
G41A U108C	1.23
U9C C113G	1.75
U9C G125A	1.8
U47C U130A	1.31
A31U A124U	1.42
C19A A136U	0.59
C84U U87C	0.04
U46A A67G	0.22
U23A U81C	0.86
A50G U87C	0.14
U130C A136U	1.63
U46C A94G	0.4
A94G C128U	0.22
A22G C145U	0.97
G35U A124G	0.68
U12C U14A	0.81

Variant	self-cleavage
G49A A141G	1.64
U73A U81C	1.09
A2G A42G	0.72
U9G A64C	0.18
G58A A77G	0.06
A24U A78G	1.31
U15A G80A	1.16
C19U U20C	0.93
G35U U46A	1.07
A22G C68U	0.98
U52G G80C	0.97
A69G A142G	0.5
U39A G48A	1.22
U26C G144C	1.68
U26A A78G	0.74
U13C U115C	1.53
A92G G144A	0.09
U46G A78G	0.6
U62C U96G	0
G21A U115C	2.12
C131U	1.41

Variant	self-cleavage
U14A A140U	1.43
G27A A138G	1.02
C28U A57U	0.11
C51U U62C	0.05
U23C C66U	0.05
U109G C128U	1.17
A22U A124G	0.47
U13C U102C	1.4
A79G A141G	1.35
G8A A67C	0
C19U U115C	1.79
U15A U52G	1.23
A79G U119A	1.06
C98U A121U	0.38
A6U G55U	0.4
U26C A142G	1.43
C38U G74A	1.27
A42G A79G	1.37
A141G U143A	1.29
G88A A92G	0.02
A65U G88U	0.02

Variant	self-cleavage
A79G G89A	0.03
G27A A69C	0.11
U112G C116A	1.57
U1C U143A	1.35
G32A U39C	1.07
U29C U108C	1.27
U109C C113A	0.99
A22U U132C	1.6
G58U A69G	0.07
U9C A50C	1.25
G97U A140G	0.07
U15G A78G	0
U91C G127A	0.53
U39C U81C	1.45
A59G U85G	0.14
A2G U13A	0.99
A2G U13C	0.64
A2U A79G	1.45
A43G A107C	1.17
U12A U52A	1.28
A22U A59G	0.07
